Patent publication US20240342283A1 (SHANDONG BOAN BIOTECHNOLOGY, published 2024)

Columns and labels:
[1] = target: T1, Receptor tyrosine kinase-like orphan receptor 1 (ROR1) on ROR1-positive cells (human, UniProt Q01973 30-937); assay: cell-based or functional assay
[2] = target: T2, Biotinylated Human ROR1 Protein, His, Avitag (Acro biosystem) (human, UniProt Q01973 30-403, biotinylated (Avitag)); assay: flow cytometry of CAR-electroporated primary T cells stained with Biotinylated Human ROR1 Protein, His, Avitag
T2 construct: Bought reagent; not shown: His tag and Avitag
Source text: To screen for CAR activity, the above-obtained T cells were electroporated with PiggyBac plasmids (shown in FIG. 3) with the CAR cassette as well as PiggyBac Transposon mRNA. CAR expression in primary T cells was confirmed by flow cytometry using Biotinylated Human ROR1 Protein, His, Avitag (Acro biosystem) (FIG. 18A).

[3] = target: T1, Receptor tyrosine kinase-like orphan …; assay: cell-based or functional assay; remark: listed apart in the source

T1 sequence (Q01973 30-937): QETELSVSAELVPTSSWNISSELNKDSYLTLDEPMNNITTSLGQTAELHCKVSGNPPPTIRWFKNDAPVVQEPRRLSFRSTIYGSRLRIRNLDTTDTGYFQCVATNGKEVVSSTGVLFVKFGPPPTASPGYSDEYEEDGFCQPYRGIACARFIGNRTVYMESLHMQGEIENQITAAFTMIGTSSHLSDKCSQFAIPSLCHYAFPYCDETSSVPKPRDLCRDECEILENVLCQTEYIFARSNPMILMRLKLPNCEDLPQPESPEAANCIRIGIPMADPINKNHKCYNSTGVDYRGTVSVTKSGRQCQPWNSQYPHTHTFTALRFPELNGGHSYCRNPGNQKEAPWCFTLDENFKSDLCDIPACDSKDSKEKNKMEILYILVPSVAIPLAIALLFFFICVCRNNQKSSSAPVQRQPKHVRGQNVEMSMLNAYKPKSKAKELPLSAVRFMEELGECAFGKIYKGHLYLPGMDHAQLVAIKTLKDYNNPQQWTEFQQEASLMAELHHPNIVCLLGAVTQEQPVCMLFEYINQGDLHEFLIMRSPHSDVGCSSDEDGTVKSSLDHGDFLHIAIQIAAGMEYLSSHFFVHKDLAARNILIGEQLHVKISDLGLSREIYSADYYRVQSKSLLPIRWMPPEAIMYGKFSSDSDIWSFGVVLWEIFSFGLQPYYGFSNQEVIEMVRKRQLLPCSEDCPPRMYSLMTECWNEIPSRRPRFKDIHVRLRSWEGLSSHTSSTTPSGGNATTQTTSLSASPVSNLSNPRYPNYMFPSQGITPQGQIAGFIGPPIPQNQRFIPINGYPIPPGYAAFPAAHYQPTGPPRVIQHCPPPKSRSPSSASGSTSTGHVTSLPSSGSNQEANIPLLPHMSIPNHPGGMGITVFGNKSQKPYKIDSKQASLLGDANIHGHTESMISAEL
T2 sequence (Q01973 30-403 limits assumed): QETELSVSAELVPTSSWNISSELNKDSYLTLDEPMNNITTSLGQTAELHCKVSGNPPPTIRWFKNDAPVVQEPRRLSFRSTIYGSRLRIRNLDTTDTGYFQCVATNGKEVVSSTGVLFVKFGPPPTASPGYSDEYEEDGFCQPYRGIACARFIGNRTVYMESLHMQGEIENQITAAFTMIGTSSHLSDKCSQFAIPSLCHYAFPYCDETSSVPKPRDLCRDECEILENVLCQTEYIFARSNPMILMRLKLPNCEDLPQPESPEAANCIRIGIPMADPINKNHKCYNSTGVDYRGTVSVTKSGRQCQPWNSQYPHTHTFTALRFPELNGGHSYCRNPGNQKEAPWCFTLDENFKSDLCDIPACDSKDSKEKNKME

Specific lysis (%) of MDA-MB-231, Effector to Target ratio 1:1 [1] [%]	Specific lysis (%) of MDA-MB-231, Effector to Target ratio 3:1 [1] [%]	CAR Positive rate [2] [%]	IFN-gamma cytokine release (pg/mL), co-culture with MDA-MB-231, Effector to Target ratio 1:1 [3] [pg/mL]	IFN-gamma cytokine release (pg/mL), co-culture with MDA-MB-231, Effector to Target ratio 3:1 [3] [pg/mL]	Binder
12.6	28.9	30.7	20500	40600	R12 ROR1 CAR (other, Benchmark chimeric antigen receptor on electroporated primary T cells; also called R12 CAR; Benchmark Control R12) CAR: QEQKVESGGRLVTPGGSLTLSCKASGFDFSAYYMSWVRQAPGKGLEWIATIYPSSGKTYYATWVNGRFTISSDNAQNTVDLQMNSLTAADRATYFCARDSYADDGALFNIWGPGTLVTISSGGGGSGGGGSGGGGSELVLTQSPSVSAALGSPAKITCTLSSAHKTDTIDWYQQLQGEAPRYLMQVQSDGSYTKRPGVPDRFSGSSSGADRYLIIPSVQADDEADYYCGADYIGGYVFGGGTQLTVTGTTTPAPRPPTPAPTIASQPLSLRPEACRPAAGGAVHTRGLDFACDIYIWAPLAGTCGVLLLSLVITLYCKRGRKKLLYIFKQPFMRPVQTTQEEDGCSCRFPEEEEGGCELRVKFSRSADAPAYKQGQNQLYNELNLGRREEYDVLDKRRGRDPEMGGKPRRKNPQEGLYNELQKDKMAEAYSEIGMKGERRRGKGHDGLYQGLSTATKDTYDALHMQALPPR
10.6	32.6	28	14600	36800	RC005c (other, Chimeric antigen receptor on electroporated Jurkat cells or primary T cells; also called RC005c (hu709 VH4VL2); hu709 VH4VL2 CAR) CAR: EVQLVQSGAEVKKPGATVKISCKVSGYTFTDYEMHWVKQAPGKGLEWIGAIDPETGGTAYNQKFKGRATITADKSSSTAYMELSSLRSEDSAVYYCTPYYGYAMDYWGQGTLVTVSSGGGGSGGGGSGGGGSDIQLTQSPSFLSASVGDRVTITCKASQNVGTNVAWYQQKPGKAPKLLIYWASTRHTGVPSRFSGSGSGTEFTLTISSLQPEDFATYFCQQYSSYPLTFGQGTKLEIKTTTPAPRPPTPAPTIASQPLSLRPEACRPAAGGAVHTRGLDFACDIYIWAPLAGTCGVLLLSLVITLYCKRGRKKLLYIFKQPFMRPVQTTQEEDGCSCRFPEEEEGGCELRVKFSRSADAPAYKQGQNQLYNELNLGRREEYDVLDKRRGRDPEMGGKPRRKNPQEGLYNELQKDKMAEAYSEIGMKGERRRGKGHDGLYQGLSTATKDTYDALHMQALPPR
